Measurements: PMC10978848, “Insights into the dual nature of αB-crystallin chaperone activity from the p.P39L mutant at the N-terminal region” (Scientific Reports, 2024)

Target: the molecule itself
Experiment: AUC; sedimentation velocity, 40,000 rpm, 20 °C, absorbance at 280 nm, buffer A (50 mM sodium phosphate, pH 7.4); masses from c(M) after Schuck; size of the oligomer

B1: human αB-crystallin, wild-type (natural protein, UniProt P02511 1-175, looked up)
chain: MDIAIHHPWIRRPFFPFHSPSRLFDQFFGEHLLESDLFPTSTSLSPFYLRPPSFLRAPSWFDTGLSEMRLEKDRFSVNLDVKHFSPEELKVKVLGDVIEVHGKHEERQDEHGFISREFHRKYRIPADVDPLTITSSLSSDGVLTVNGPRKQVSGPERTIPITREEKPAVTAAPKK
notes: human αB-crystallin (CRYAB, HspB5); It names no tag; also called CRYAB; HspB5; source: E. coli, IPTG-induced, purified (anion exchange, DEAE cellulose); copies: 24
- stoichiometry N: 24 subunits

B2: human αB-crystallin p.P39L mutant (natural protein, UniProt P02511 1-175, looked up)
chain: MDIAIHHPWIRRPFFPFHSPSRLFDQFFGEHLLESDLFLTSTSLSPFYLRPPSFLRAPSWFDTGLSEMRLEKDRFSVNLDVKHFSPEELKVKVLGDVIEVHGKHEERQDEHGFISREFHRKYRIPADVDPLTITSSLSSDGVLTVNGPRKQVSGPERTIPITREEKPAVTAAPKK
notes: human αB-crystallin (CRYAB, HspB5) with the variant p.P39L, which was found in a patient; It names no tag; also called p.P39L αB-Cry; mutant αB-Cry; source: E. coli, IPTG-induced, purified (anion exchange, DEAE cellulose); copies: 48
- stoichiometry N: 48 subunits
